This note sets out measurements from patent publication US20040018971A1 (published 2004).

Assay [1] has as its target HLA-A*0301 (purified HLA class I molecule) (human). Briefly: competition vs 125I standard peptide, purified HLA.
Assay [2] deals with T1, HLA-A*1101 (purified HLA class I molecule) (human).
T1 construct: Purified MHC molecule
The assay is described as follows: competition vs 125I standard peptide, purified HLA.

Assay [3] concerns the target T2, HLA-A*3101 (purified HLA class I molecule) (human).
T2 construct: Purified MHC molecule
Briefly: competition vs 125I standard peptide, purified HLA.

Assay [4] addresses T3, HLA-A*3301 (purified HLA class I molecule) (human).
T3 construct: Purified MHC molecule
The assay is described as follows: competition vs 125I standard peptide, purified HLA.

In assay [5] the target is T4, HLA-A*6801 (purified HLA class I molecule) (human).
T4 construct: Purified MHC molecule
Briefly: competition vs 125I standard peptide, purified HLA.

Assay [6] has as its target T5, HLA-A*0301 (purified HLA class I molecule) (human).
T5 construct: also called A3
Briefly: inhibition of 125I probe peptide binding to purified HLA; ratio to standard peptide.

The target of assay [7] is HLA-A*1101 (purified HLA class I molecule) (human). The assay is described as follows: inhibition of 125I probe peptide binding to purified HLA; ratio to standard peptide; minus sign not explained.
For assay [8], the target named is T6, HLA-A*0101 (human).
T6 construct: Purified HLA molecule, 5 to 500 nM in the assay; also called HLA-A1
Briefly: competition with a 125I-labelled probe peptide for purified HLA-A*0101, gel filtration; ratio against the A*0101 standard peptide 944.02 [..] (25 nM). For orientation: Size exclusion chromatography separates by hydrodynamic size, large species first.

For a further assay, the target named is HLA-DR1 (DRB1*0101) (human). Briefly: competition with 125I-labelled probe peptide on purified HLA-DR, gel filtration; IC50 of standard peptide / IC50 of test peptide.
The target of another assay is T7, HLA-DR4w4 (DRB1*0401) (human).
T7 construct: Purified HLA class II molecule
The description is as above.

The target of another assay is T8, HLA-DR7 (DRB1*0701) (human).
T8 construct: Purified HLA class II molecule
Described as above.

In a further assay the target is T9, HLA-A*0201 (human).
T9 construct: also called HLA-A2.1; A2.1
Briefly: competitive inhibition of 125I-labeled probe peptide binding to purified HLA-A*0201.

Assay [9] concerns the target T5, HLA-A*0301 (purified HLA class I …). The assay is described as follows: inhibition of 125I probe peptide binding to purified HLA; ratio to standard peptide; minus sign not explained.
Assay [10] addresses HLA-DR1 (DRB1*0101), purified HLA class II molecule (human). The assay is described as follows: competition with 125I-labelled probe peptide, purified HLA-DR.
For assay [11], the target named is T10, HLA-A*0101 (human).
T10 construct: also called HLA-A1
Briefly: competition with 125I-labelled probe peptide for purified HLA-A*0101, gel filtration.

The next assay deals with HLA-A*0202 (human). Briefly: competition with 125I probe peptide for purified HLA.
The target of another assay is HLA-A*0203 (human). The assay is described as above.
The next assay concerns the target HLA-A*0206 (human). Described as above.
For the next assay, the target named is HLA-A*6802 (human). The assay is described as above.
The target of a further assay is T11, HLA-DRB1*0401 (human).
T11 construct: also called DR4w4
Briefly: competition with 125I-labeled standard peptide, purified HLA-DR, gel filtration.

The target in a further assay is T12, HLA-DRB1*0701 (human).
T12 construct: also called DR7
The description is as above.

In general, IC50 refers to the midpoint of a concentration-inhibition curve. A higher IC50 goes with weaker potency in that assay.

In the case of ILIKRRQQK [HER2/neu peptide, position 673, 9 amino acids], the relative binding ratio in assay [1] is 0.38 ratio (IC50 standard/IC50 test); in [2], 0.0097 ratio (IC50 standard/IC50 test); in assay [3], 0.076 ratio (IC50 standard/IC50 test); in assay [4], 0.0064 ratio (IC50 standard/IC50 test); in assay [5], 0.0001 ratio (IC50 standard/IC50 test).
On to ESMPNPEGR [HER2/neu peptide, position 280, 9 amino acids], for which the figures for the relative binding ratio in assay [6] and in assay [7] were 0.0003 ratio (IC50 standard / IC50 test) and -0.0002 ratio (IC50 standard / IC50 test), respectively.
On to TLEEITGY (also called Her2/neu.402 (8-mer)) [HER2/neu peptide, position 402, 8 amino acids], for which the “relative binding ratio (IC50 of standard peptide / IC50 of test peptide)” value with HLA-A*0101 [8] was -0.0021 ratio.
ILKETELRK [HER2/neu peptide, position 714, 9 amino acids]: the relative binding ratio in assay [1] was 0.019 ratio (IC50 standard/IC50 test); in assay [2], 0.0023 ratio (IC50 standard/IC50 test); in [3], 0.0009 ratio (IC50 standard/IC50 test); in [4] it was 0.001 ratio (IC50 standard/IC50 test); in assay [5], 0.0001 ratio (IC50 standard/IC50 test).
Consider DMKLRLPASPETHLD (also called Her2/neu.30) [HER2/neu peptide DMKLRLPASPETHLD (position 30)], for which the relative binding ratio is 0.001 ratio in the assay with HLA-DR1 (DRB1*0101), -0.0025 ratio with HLA-DR4w4 (DRB1*0401) and -0.0013 ratio with HLA-DR7 (DRB1*0701).
In the assay with HLA-A*0201, YMIMVKCWM [Her2/neu.952] gave a concentration for half-maximal inhibition (IC50) of at most 500 nM.
Regarding CSPMCKGSR (also called Her2/neu.195 (9-mer)) [HER2/neu peptide, position 195, 9 amino acids], the values for the relative binding ratio in assay [9] and in assay [7] were -0.0008 ratio (IC50 standard / IC50 test) and -0.0001 ratio (IC50 standard / IC50 test), respectively.
Turning to QPDVRPQPPSPREGP (also called Her2/neu.1142) [HER2/neu DR supermotif exemplary 15-mer QPDVRPQPPSPREGP (position 1142)], the relative binding ratio in [10] is 0.0007 ratio (IC50 standard / IC50 test).
For the molecule VFETLEEITGY (also called Her2/neu.399) [HER2/neu peptide, position 399, 11 amino acids], the “relative binding ratio (IC50 of standard peptide / IC50 of test peptide)” value with HLA-A*0101 [8] came to 0.0045 ratio.
On to HTVPWDQLFR (also called Her2/neu.478) [HER2/neu peptide, position 478, 10 amino acids], for which the relative binding ratio is 0.0035 ratio (IC50 standard/IC50 test) in assay [1]; 0.072 ratio (IC50 standard/IC50 test) in assay [2]; 0.96 ratio (IC50 standard/IC50 test) in assay [3]; 0.33 ratio (IC50 standard/IC50 test) in assay [4]; 2 ratio (IC50 standard/IC50 test) in assay [5].
Regarding TLEEITGYLY (also called Her2/neu.402) [HER2/neu peptide, position 402, 10 amino acids], the “relative binding ratio (IC50 of standard peptide / IC50 of test peptide)” value with HLA-A*0101 [8] was found to be 1.1 ratio.
As for ETELVEPLTPSGAMP (also called Her2/neu.693) [HER2/neu peptide ETELVEPLTPSGAMP (position 693)], the figures for the relative binding ratio with HLA-DR1 (DRB1*0101), with HLA-DR4w4 (DRB1*0401) and with HLA-DR7 (DRB1*0701) were 0.006 ratio, -0.0025 ratio and -0.0013 ratio, respectively.
In the case of QLMPYGCLL [Her2/neu.799], in the assay with HLA-A*0201, the IC50 was at most 500 nM.
In the case of CSKPCARVCY [HER2/neu peptide, position 334, 10 amino acids], the relative binding ratio in the assay with HLA-A*0101 [11] is 0.0016 ratio (IC50 of standard peptide / IC50 of test peptide).
On to LLNWCMQIAK [HER2/neu peptide, position 822, 10 amino acids], for which the relative binding ratio in [1] is 0.14 ratio (IC50 standard/IC50 test); in assay [2], 0.14 ratio (IC50 standard/IC50 test); in [3] it was 0.01 ratio (IC50 standard/IC50 test); in assay [4] it was 0.0088 ratio (IC50 standard/IC50 test); in [5], 0.0086 ratio (IC50 standard/IC50 test).
As for KVLRENTSPK [HER2/neu peptide, position 753, 10 amino acids], the relative binding ratio is 0.38 ratio (IC50 standard/IC50 test) in assay [1]; 0.22 ratio (IC50 standard/IC50 test) in assay [2]; 0.0068 ratio (IC50 standard/IC50 test) in assay [3]; 0.0012 ratio (IC50 standard/IC50 test) in [4]; 0.0008 ratio (IC50 standard/IC50 test) in assay [5].
Turning to ALCRWGLLLA [Her2/neu.5 (10-mer) ALCRWGLLLA], the IC50 came to 1960 nM with HLA-A*0202, 12 nM in the assay with HLA-A*0203, 1950 nM with HLA-A*0206 and 2500 nM with HLA-A*6802.
Regarding DSECRPRFR (also called Her2/neu.962 (9-mer)) [HER2/neu peptide, position 962, 9 amino acids], the relative binding ratio in assay [9] and in assay [7] was -0.0002 ratio (IC50 standard / IC50 test) in each case.

B1: HER2/neu DR supermotif exemplary peptide KEILDEAYVMAGVGS (position 765) (peptide)
peptide: KEILDEAYVMAGVGS
notes: synthetic 15-mer; also called Her2/neu.765
Take B1: the relative binding ratio was 0.0073 ratio (standard IC50 / test IC50) with HLA-DRB1*0401 and -0.0011 ratio (standard IC50 / test IC50) in the assay with HLA-DRB1*0701.
Regarding QLMPYGCLL [Her2/neu.799 QLMPYGCLL], the results for the IC50 with HLA-A*0202, in the assay with HLA-A*0203 and with HLA-A*0206 were 977 nM, 114 nM and 712 nM, respectively.
As to PSGVKPDLSY [HER2/neu peptide, position 601, 10 amino acids], in the assay with HLA-A*0101 [11], the relative binding ratio is 0.001 ratio (IC50 of standard peptide / IC50 of test peptide).
GMEHLREVR (also called Her2/neu.346 (9-mer)) [HER2/neu peptide, position 346, 9 amino acids]: the relative binding ratio in assay [9] and in [7] was -0.0002 ratio (IC50 standard / IC50 test) each time.
Regarding DMGDLVDAEEY [HER2/neu peptide, position 1013, 11 amino acids], the relative binding ratio in the assay with HLA-A*0101 [11] was 0.0027 ratio (IC50 of standard peptide / IC50 of test peptide).
In the case of QLFEDNYALA [Her2/neu.106 (10-mer) QLFEDNYALA], the IC50 with HLA-A*0202 was 662 nM; in the assay with HLA-A*0203, 9.1 nM; with HLA-A*0206 it was 218 nM; in the assay with HLA-A*6802, 74 nM.
As for TCSPQPEY (also called Her2/neu.1132) [HER2/neu peptide, position 1132, 8 amino acids], the “relative binding ratio (IC50 of standard peptide / IC50 of test peptide)” value with HLA-A*0101 [8] was -0.0021 ratio.
As for ILWKDIFHK (also called Her2/neu.167) [HER2/neu peptide, position 167, 9 amino acids], the relative binding ratio in assay [1] was 0.28 ratio (IC50 standard/IC50 test); in assay [2] it was 0.31 ratio (IC50 standard/IC50 test); in assay [3], 0.22 ratio (IC50 standard/IC50 test); in assay [4], 0.03 ratio (IC50 standard/IC50 test); in [5], 0.0046 ratio (IC50 standard/IC50 test).
GLACHQLCA [Her2/neu.508] came in with an IC50 in the assay with HLA-A*0201 of at most 500 nM.
ALCRWGLLLA [Her2/neu.5] returned a half-inhibitory concentration (IC50) in the assay with HLA-A*0201 of at most 500 nM.
CAGGCARCK (also called Her2/neu.220 (9-mer)) [HER2/neu peptide, position 220, 9 amino acids]: the relative binding ratio in assay [9] and in assay [7] was -0.0002 ratio (IC50 standard / IC50 test) in each case.
In the case of QLFEDNYALA [Her2/neu.106], the IC50 with HLA-A*0201 is at most 500 nM.
As for ETHLDMLRHLY (also called Her2/neu.40) [HER2/neu peptide, position 40, 11 amino acids], the relative binding ratio with HLA-A*0101 [11] is 0.28 ratio (IC50 of standard peptide / IC50 of test peptide).
The molecule YMIMVKCWM [Her2/neu.952 (9-mer) YMIMVKCWM] yielded a half-inhibitory concentration (IC50) with HLA-A*6802 of 1000 nM. That is a single-digit micromolar value.
As to ETLEEITGYLY (also called Her2/neu.401) [HER2/neu peptide, position 401, 11 amino acids], the relative binding ratio in the assay with HLA-A*0101 [11] was 0.44 ratio (IC50 of standard peptide / IC50 of test peptide).
For the molecule GVVFGILIK [HER2/neu peptide, position 668, 9 amino acids], the relative binding ratio was 0.0047 ratio (IC50 standard/IC50 test) in assay [1]; 0.089 ratio (IC50 standard/IC50 test) in [2]; 0.0019 ratio (IC50 standard/IC50 test) in assay [3]; 0.0025 ratio (IC50 standard/IC50 test) in [4]; 0.0011 ratio (IC50 standard/IC50 test) in assay [5].
For the molecule PTHDPSPLQRY [HER2/neu peptide, position 1102, 11 amino acids], the relative binding ratio with HLA-A*0101 [11] is 0.016 ratio (IC50 of standard peptide / IC50 of test peptide).
Regarding THDPSPLQRY (also called Her2/neu.1103) [HER2/neu peptide, position 1103, 10 amino acids], the “relative binding ratio (IC50 of standard peptide / IC50 of test peptide)” value in the assay with HLA-A*0101 [8] is 0.0015 ratio.
Turning to VTACPYNY (also called Her2/neu.296) [HER2/neu peptide, position 296, 8 amino acids], in the assay with HLA-A*0101 [8], the “relative binding ratio (IC50 of standard peptide / IC50 of test peptide)” value was 0.1 ratio.
